How the values were obtained:
DPP-IV [1] = biological target: T1, DPP-IV (Sus scrofa, UniProt P22411); conditions: for RELATIVE POTENCY [%]: signal relative to the highest signal obtained in this test (LPL and IPI)
From the text: About 40 protein hydrolysates were subjected to on-line liquid chromatography (LC)-biochemical detection (BCD)-mass spectrometry (MS), a method that allowed for separation of crude extract by HPLC, after which the presence of bioactive compounds was detected by means of an on-line biochemical assay. This method for on-line fractionation and characterisation has extensively been described by Van Elswijk et al. (J Chromatography A (2003) 1020:45-58).
A variety of protein hydrolysates prepared according to example 2 were further investigated for DPP-IV inhibiting activity. Hydrolysed protein samples were analysed for DPP-IV inhibitory activity in a high-resolution screening (HRS) instrument, as discussed in Van Elswijk et al. (supra).
DPP-IV inhibition was monitored via the substrate conversion based bioassay format as disclosed in example 1. In addition to the DPP-IV inhibitory activity data, chemical information was obtained in real-time by allowing part of the HPLC effluent to be directed towards a mass spectrometer. […] The assay conditions applied ensured maximum enzyme activity by applying substrate saturation.

DPP-IV [2] = biological target: T1, DPP-IV; experiment: In vitro DPP-IV inhibition assay with Gly-Pro-p-nitroanilide substrate (absorption at 385 nm); format: biochemical; design: purchased Sigma D-7052; conditions: unhydrolysed control proteins, DH 0%
Experimental: DPP-IV activity can be determined by measuring the increase in absorption at 385 nm using Gly-Pro-p-nitroanilide (Sigma G-0513) as DPP-IV substrate. A decrease in DPP-IV activity is a measure for the inhibition.
13.152 mg Gly-Pro-p-nitroanilide (substrate; Sigma G-0513) was dissolved in 1 ml Tris buffer, pH 8.0. DPP-IV (Sigma D-7052) was diluted with Tris buffer, pH 8.0 to 1.1 Unit/ml. The substrate was diluted 50-fold with Tris buffer, pH 8.0. The samples were prepared by diluting a protein hydrolysate to a 1 wt. % protein solution in Tris buffer, pH 8.0. The samples were then serially diluted to obtain a range of sample concentrations. 50 μl of the different serially diluted samples and 50 μl of the diluted substrate were then pipetted in wells of a microtiter plate with 96 wells. Subsequently, 100 μl of the diluted enzyme was pipetted in each well of a plate with 96 wells. Then the increase in absorption at 385 nm was determined and DPP-IV activities at different concentrations of a variety of protein hydrolysates were determined, from which the IC50 (i.e. the concentration of inhibitor (particular protein hydrolysate) that inhibits 50% of the DPP-IV activity) could be derived. […] The degree of hydrolysis was determined using the o-phtaldialdehyde method, which is well known in the art.

T1 sequence (P22411 whole entry): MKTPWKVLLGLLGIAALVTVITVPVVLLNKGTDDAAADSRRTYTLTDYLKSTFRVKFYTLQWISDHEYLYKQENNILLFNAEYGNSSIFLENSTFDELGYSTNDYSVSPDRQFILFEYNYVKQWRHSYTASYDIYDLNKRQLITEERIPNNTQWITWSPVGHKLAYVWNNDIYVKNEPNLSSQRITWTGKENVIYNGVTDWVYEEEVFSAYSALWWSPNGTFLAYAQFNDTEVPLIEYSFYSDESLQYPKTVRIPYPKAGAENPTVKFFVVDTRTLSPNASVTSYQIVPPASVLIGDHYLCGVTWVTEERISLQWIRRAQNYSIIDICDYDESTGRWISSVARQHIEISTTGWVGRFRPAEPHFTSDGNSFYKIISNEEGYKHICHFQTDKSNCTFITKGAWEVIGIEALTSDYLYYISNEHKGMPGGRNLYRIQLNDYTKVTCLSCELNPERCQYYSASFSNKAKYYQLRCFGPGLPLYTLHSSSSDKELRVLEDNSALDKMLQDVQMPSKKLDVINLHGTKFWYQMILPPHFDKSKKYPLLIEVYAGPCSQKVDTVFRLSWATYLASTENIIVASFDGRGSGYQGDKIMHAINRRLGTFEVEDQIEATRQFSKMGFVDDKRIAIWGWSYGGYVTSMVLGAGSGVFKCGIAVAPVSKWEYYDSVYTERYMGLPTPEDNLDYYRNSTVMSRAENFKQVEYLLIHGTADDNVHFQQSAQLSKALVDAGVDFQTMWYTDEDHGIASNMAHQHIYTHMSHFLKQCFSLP

Row | Compound | RELATIVE POTENCY [%] (DPP-IV [1]) | also measured
1 | CC[C@H](C)[C@H](N)C(=O)N1CCC[C@H]1C(=O)N[C@H](C(=O)O)[C@@H](C)CC [IPI] | 100 | 
2 | HPIK | 6 | 
3 | LPVP | 15 | 
4 | MPLW | 23 | 
5 | PFP | 20 | 
6 | Sodium caseinate |  | inhibition of the enzyme DPP-IV (DPP-IV [2]): did not inhibit
7 | VTKCCTE |  | DPP-IV inhibiting activity (qualitative) (DPP-IV [1]; additional peptides): DPP-IV inhibiting compounds

More lines, main results first:

Row | RELATIVE POTENCY [%] (DPP-IV [1]) | Compound | also measured
8 | 34 | GPFP | 
9 | 98 | KVLP | 
10 | 11 | LPLP | 
11 | 37 | PLLQ | 

Source: US8273710B2, “Protein hydrolysate enriched in peptides inhibiting DPP-IV and their use” (Campina Nederland Holding B.V., priority 2004, dated 2012)
